According to article doi:10.1101/2025.05.23.655772:
pKd: −log10 of the molar value.

Tests used:
[1] = biological target: catalytically inactive USP5 C335A (human) (UniProt P45974); test: FRET or BRET
[2] = biological target: ubiquitin-specific protease 5, wild type (human) (UniProt P45974); test: thermal shift assay
Sequence of ubiquitin-specific protease 5, wild type (human) (P45974 whole entry): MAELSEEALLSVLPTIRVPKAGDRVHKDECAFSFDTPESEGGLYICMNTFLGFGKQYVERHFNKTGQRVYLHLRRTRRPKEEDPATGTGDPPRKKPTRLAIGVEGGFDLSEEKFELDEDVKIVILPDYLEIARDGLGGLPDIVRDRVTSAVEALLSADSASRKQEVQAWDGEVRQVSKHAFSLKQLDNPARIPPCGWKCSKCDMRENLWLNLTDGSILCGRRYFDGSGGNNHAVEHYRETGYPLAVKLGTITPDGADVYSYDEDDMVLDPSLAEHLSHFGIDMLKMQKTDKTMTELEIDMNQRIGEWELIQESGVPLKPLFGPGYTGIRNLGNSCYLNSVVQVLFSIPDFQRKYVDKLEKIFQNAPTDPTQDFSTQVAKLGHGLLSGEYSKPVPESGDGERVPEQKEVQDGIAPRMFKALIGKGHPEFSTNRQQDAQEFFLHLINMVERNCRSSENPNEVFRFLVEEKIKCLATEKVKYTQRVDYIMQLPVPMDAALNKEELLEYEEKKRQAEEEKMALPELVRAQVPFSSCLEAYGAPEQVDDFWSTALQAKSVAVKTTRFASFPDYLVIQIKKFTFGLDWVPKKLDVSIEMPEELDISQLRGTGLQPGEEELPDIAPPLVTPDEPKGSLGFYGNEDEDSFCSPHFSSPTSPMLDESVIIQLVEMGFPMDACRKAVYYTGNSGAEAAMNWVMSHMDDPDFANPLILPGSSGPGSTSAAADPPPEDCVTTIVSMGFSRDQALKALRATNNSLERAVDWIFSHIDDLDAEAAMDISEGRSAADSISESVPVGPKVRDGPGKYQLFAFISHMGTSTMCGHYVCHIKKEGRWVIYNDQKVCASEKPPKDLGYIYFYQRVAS

Sequence of catalytically inactive USP5 C335A (human) (P45974 whole entry C335A): as the sequence (P45974 whole entry) above, with C335A counted along it

Row | Substance | pKd [1] | Tm of the covalent complex [2] [°C]
1 | Cy5-labelled SDE2UBL (from UniProt Q6IQ49 1-77) (domain or fragment) | 6.00 | 
2 | ISG15-PA, ISG15 propargylamide activity-based probe (from UniProt P05161 1-157) |  | 57.6
